Data as given in the nanobody polyreactivity screen of Harvey et al. (2022).

Experiment: yeast display, Sf9 membrane polyspecificity reagent, FACS + sequencing; frameworks hold sequencing errors
In short: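 Sorting gates, low and high (top ~1%), were placed on anti-HA fluorescence to track expression and on streptavidin fluorescence to track reagent binding. A clone's polyreactivity label is taken from the gate it came out of. The reagent was 10% biotinylated, detergent-solubilized Sf9 membrane, applied for 1 hour at 4 °C to galactose-induced yeast display cells.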

| Sequence | polyreactivity (PSR sort gate) |
| --- | --- |
| QVQLVESGGGLVQAGGSLRLSCAASGIIFDEYAMGWYRQAPGKERELVATISSGGDTNYADSVKGRFTISRDNAKHTFYLQMNSLKPEDTALYYCAATVYDGYSPYDYDYWGQGTQVTVSS | low polyreactivity |
| QVQLVESGGGLVQAGGSLRLSCAASGIIFDGYAMGWYRQAPGKEREFVAAITSGGGSTSYADSVKGRFTISRDNAKNTVYLQMNSLKPEDTAVYSCAARSNRFYVRQRYGYWGQGTQVTVSS | high polyreactivity |
| QVQLVESGGGLVQAGGSLRLSCAASGIIFDGYVMGWYRQAPGNERELVAAISRSGGRTFYADSVKGRFTISRDNAKNTVYLQMNSLKPEATAVYYCAARRVRTRGYNYWGQGTQVTVSS | high polyreactivity |
| QVQLVESGGGLVQAGGSLRLSCAASGIIFDLNAMGWYRQAPGKERELVAAISSGGGTYYADSVKGRFTISRDNAKNTVYLQMNSLKPEDTAVYYCNRVTRWTYNYWGQGTLVTVSS | high polyreactivity |
| QVQLVESGGGLVQAGGSLRLSCAASGIIFDPYAMGWYRQAPGKERELVADIDNASSTYYADSVKGRFTISRDNAKNTVYLQMNSLKPEDTAVYYCTADLWYGGEYWGQGTQVTVSS | low polyreactivity |
| QVQLVESGGGLVQAGGSLRLSCAASGIIFDSYAMGWYRQAPGKERELVAAISTSGGSTYYADSVKGRFTISRDNAKNTVYLQMNSLKPEDTEVYYCAARYAVSRYRFGFNYWGQGTQVTVSS | high polyreactivity |
| QVQLVESGGGLVQAGGSLRLSCAASGIIFDSYTMGWYRQAPGKERELVAAISVSGGSTYYADSVKGRFTISRDNAKNTVYLQMNSLKPEDTAVYYCATVPSLPDYDSWGQGTQVTVSS | low polyreactivity |
| QVQLVESGGGLVQAGGSLRLSCAASGIIFDWYAMGWYRQAPGKERELVAAISYSGGTTYYADSVKGRFTISRDNAKNTVYFQMNSLTPEDTAVYYCAARYEGAAANYVEYGYWGLGTQVTVSS | low polyreactivity |
| QVQLVESGGGLVQAGGSLRLSCAASGIIFDYNAMGWYRQAPGKERELVAAITSTDNTNYADSVKGRFTISRDNAKNTVYLQMNSLKPEDTAVYYCNSVYWLSVVYAMDYWGQGTQVTVSS | low polyreactivity |
| QVQLVESGGGLVQAGGSLRLSCAASGIIFDYNAMGWYRQAPGKERELVAAITSTDNTNYADSVKGRFTISRDNAKNTVYLQMNSLKPEDTAVYYCNTDYLLCVVYAMDYCGQGTQVTVSS | low polyreactivity |
| QVQLVESGGGLVQAGGSLRLSCAASGIIFDYYDMGWYRQAPGKERELVAAISDDGGSTYYADSVKGRFTISRDNAKNTVYLQMNSLKPEDTAVYYCAADSYYAYPYGYGYWGQGTQVTVSS | high polyreactivity |
| QVQLVESGGGLVQAGGSLRLSCAASGIIFEGNVMGWYRQAPGKERELVAAITSDTSTNYADSVKGRFTISRDNAKNSVYLQMNSLKPEDTAVYYCDALRRYPRPNIYGYWGQGTQVTVSS | low polyreactivity |
| QVQLVESGGGLVQAGGSLRLSCAASGIIFEYYAMGWYRQAPGKERELVAAISKRGGSTYYADSVKGRFTISRDNAKNTVYLQMNSLKPEDTAVYYCNARRWWVIRDYWGQGTQVTVSS | high polyreactivity |
| QVQLVESGGGLVQAGGSLRLSCAASGIIFEYYDRGWYRQAPGKERELVAAIDSGGSTYYADSVKGRFTISRDNAKNTVYLQMNSLKPEDTAVYYCAAETVRYDWGESPAALFDYWGQGTQVTVSS | low polyreactivity |
| QVQLVESGGGLVQAGGSLRLSCAASGIIFEYYTMGWYRQAPGNERELVASITYDGDSTYYADSVKGRFTISRDHAKNTVYLQINSLKPEDTAVYFCAADYYYVYSSFGHYYWGQGTQVTVSS | low polyreactivity |
| QVQLVESGGGLVQAGGSLRLSCAASGIIFFDYAMGWYRQAPGKERELVAAITSSGGSTYYADSVKGRFTISRDNAKNTVYLQMNSLKPEDTAVYYCAAATRGSGRRNDYWGQGTQVTVSS | high polyreactivity |
| QVQLVESGGGLVQAGGSLRLSCAASGIIFFIYAMGWYRQAPGKERELVARISWRGGSTSYADSVKGRFTISRDNAKNTVYLQMNSLKPEDTAVYYCAAGVYSFRYDSWGQGTQVTVSS | low polyreactivity |
